Measurements published in US11833164B2, “Methods of treating Fabry disease in patients having a mutation in the GLA gene” (Amicus Therapeutics, Inc., priority 2019, dated 2023).
Positions count from the first letter of the chain named. Names may count otherwise.

B1: A97T (protein)
chain: MQLRNPELHLGCALALRFLALVSWDIPGARALDNGLARTPTMGWLHWERFMCNLDCQEEPDSCISEKLFMEMAELMVSEGWKDAGYEYLCIDDCWMTPQRDSEGRLQADPQRFPHGIRQLANYVHSKGLKLGIYADVGNKTCAGFPGSFGYYDIDAQTFADWGVDLLKFDGCYCDSLENLADGYKHMSLALNRTGRSIVYSCEWPLYMWPFQKPNYTEIRQYCNHWRNFADIDDSWKSIKSILDWTSFNQERIVDVAGPGGWNDPDMLVIGNFGLSWNQQVTQMALWAIMAAPLFMSNDLRHISPQAKALLQDKDVIAINQDPLGKQGYQLRQGDNFEVWERPLSGLAWAVAMINRQEIGGPRSYTIAVASLGKGVACNPACFITQLLPVKRKLGFYEWTSRLRSHINPTGTVLLQLENTMQMSLKDLL
B2: R105I (protein)
chain: B1 chain with T97A, R105I
B3: G104S (protein)
chain: B1 chain with T97A, G104S
B4: D101H (protein)
chain: B1 chain with T97A, D101H
B5: Q99P (protein)
chain: B1 chain with T97A, Q99P
B6: Q99E (protein)
chain: B1 chain with T97A, Q99E
B7: G104D (protein)
chain: B1 chain with T97A, G104D
B8: P98R (protein)
chain: B1 chain with T97A, P98R
B9: P98H (protein)
chain: B1 chain with T97A, P98H
B10: S102A (protein)
chain: B1 chain with T97A, S102A
B11: D101V (protein)
chain: B1 chain with T97A, D101V
B12: S102T (protein)
chain: B1 chain with T97A, S102T
B13: D101A (protein)
chain: B1 chain with T97A, D101A
B14: Q99L (protein)
chain: B1 chain with T97A, Q99L
B15: G104A (protein)
chain: B1 chain with T97A, G104A
B16: D101G (protein)
chain: B1 chain with T97A, D101G
B17: R105G (protein)
chain: B1 chain with T97A, R105G
B18: P98L (protein)
chain: B1 chain with T97A, P98L
B19: D101E (protein)
chain: B1 chain with T97A, D101E
B20: S102P (protein)
chain: B1 chain with T97A, S102P
B21: Q99R (protein)
chain: B1 chain with T97A, Q99R

tested on: mutant form of α-Gal A expressed in HEK-293 cells; assay: HEK assay (GLP HEK / Migalastat Amenability Assay): α-Gal A activity in lysates of transiently transfected HEK-293 cells incubated with or without 10 μM migalastat; type: cell-based, human; conditions: 10 μM migalastat versus baseline
Procedure: Such mutations or variants are also referred to herein as “HEK assay amenable” mutations or variants.
The α-Gal A activity is expressed as the nmoles of free 4-MU released per milligram of protein per hour (nmol/mg/hr).
In Table 7, values for the mean±standard error of the mean (SEM) were calculated. nmol/mg/hr indicates “nmoles of free 4-MU released per mg of protein per hour”. WT indicates “wild-type”. NC indicates “not calculable”. N/A indicates “not applicable”.

Going from B1 to B2, the “Absolute increase (% WT)” value falls from 21.4 % WT to 8.2 % WT.

First: B3
Second: B4
The “Absolute increase (% WT)” value of the first is higher: 52.0 % WT for the first, 7.3 % WT for the second.

First: B5
Second: B6
The “Absolute increase (% WT)” value of the first is lower: 19.1 % WT for the first, 25.5 % WT for the second.

Compared with B7, B8 is lower in “Absolute increase (% WT)” value: 30.5 % WT for the first, 16.4 % WT for the second.

First: B9
Second: B10
The “Absolute increase (% WT)” value of the first is lower: 22.5 % WT for the first, 27.3 % WT for the second.

Going from B11 to B12, the “Absolute increase (% WT)” value rises from 10.2 % WT to 20.5 % WT.

Compared with B13, B14 is higher in “Absolute increase (% WT)” value: 10.2 % WT for the first, 27.4 % WT for the second.

Compared with B15, B16 is lower in “Absolute increase (% WT)” value: 40.4 % WT for the first, 12.7 % WT for the second.

Going from B17 to B18, the “Absolute increase (% WT)” value rises from 15.3 % WT to 19.6 % WT.

First: B19
Second: B20
The “Absolute increase (% WT)” value of the first is lower: 10.1 % WT for the first, 22.3 % WT for the second.

B21 was tested, and the “Absolute increase (% WT)” value was 21.4 % WT.

same assay, conditions: 10 μM migalastat α-Gal A activity relative to baseline

Compared with B1, B2 is lower in Relative increase: 1.8 for the first, 1.3 for the second.

Compared with B3, B4 is lower in Relative increase: 3.9 for the first, 1.4 for the second.

Going from B5 to B6, the Relative increase falls from 3.3 to 1.4.

Going from B7 to B8, the Relative increase falls from 1.8 to 1.3.

Going from B9 to B10, the Relative increase rises from 1.4 to 1.6.

Compared with B11, B12 is lower in Relative increase: 2.2 for the first, 1.3 for the second.

Going from B13 to B14, the Relative increase falls from 1.5 to 1.4.

Going from B15 to B16, the Relative increase falls from 3.7 to 1.3.

Going from B17 to B18, the Relative increase falls from 1.4 to 1.3.

Compared with B19, B20 is lower in Relative increase: 1.4 for the first, 1.3 for the second.

Molecule B21 has a Relative increase of 1.2.

same assay, conditions: 10 μM migalastat, 5 days; percentage of baseline wild-type α-Gal A activity; mean ± SEM

First: B1
Second: B2
The “10 μM migalastat α-Gal A activity (% WT)” value of the first is higher: 50.9 ± 2.7 % WT for the first, 41.6 ± 3.1 % WT for the second.

Compared with B3, B4 is lower in “10 μM migalastat α-Gal A activity (% WT)” value: 69.8 ± 5.8 % WT for the first, 23.8 ± 1.3 % WT for the second.

First: B5
Second: B6
The “10 μM migalastat α-Gal A activity (% WT)” value of the first is lower: 28 ± 2.4 % WT for the first, 95.8 ± 7.9 % WT for the second.

First: B7
Second: B8
The “10 μM migalastat α-Gal A activity (% WT)” value of the first is lower: 69.8 ± 4.7 % WT for the first, 85.8 ± 5.8 % WT for the second.

Going from B9 to B10, the “10 μM migalastat α-Gal A activity (% WT)” value falls from 83.4 ± 4.6 % WT to 69.9 ± 5.1 % WT.

First: B11
Second: B12
The “10 μM migalastat α-Gal A activity (% WT)” value of the first is lower: 18 ± 2.6 % WT for the first, 76.9 ± 6.2 % WT for the second.

Compared with B13, B14 is higher in “10 μM migalastat α-Gal A activity (% WT)” value: 34.1 ± 3.3 % WT for the first, 93.4 ± 7.3 % WT for the second.

B15 and B16 are within error of each other in “10 μM migalastat α-Gal A activity (% WT)” value: 55.2 ± 3 % WT for the first, 54.5 ± 3.8 % WT for the second.

First: B17
Second: B18
The “10 μM migalastat α-Gal A activity (% WT)” value of the first is lower: 53.3 ± 3.5 % WT for the first, 88.5 ± 6.3 % WT for the second.

Going from B19 to B20, the “10 μM migalastat α-Gal A activity (% WT)” value rises from 34 ± 2.8 % WT to 91.7 ± 5 % WT.

For B21, the “10 μM migalastat α-Gal A activity (% WT)” value was 114.8 ± 8 % WT.

same assay, conditions: absence of migalastat; percentage of baseline wild-type α-Gal A activity; mean ± SEM

B1 and B2 are within error of each other in “Baseline α-Gal A activity (% WT)” value: 29.4 ± 2.2 % WT for the first, 33.4 ± 2.2 % WT for the second.

B3 and B4 are within error of each other in “Baseline α-Gal A activity (% WT)” value: 17.9 ± 1.8 % WT for the first, 16.5 ± 1.2 % WT for the second.

First: B5
Second: B6
The “Baseline α-Gal A activity (% WT)” value of the first is lower: 8.8 ± 1.2 % WT for the first, 70.3 ± 4.1 % WT for the second.

Going from B7 to B8, the “Baseline α-Gal A activity (% WT)” value rises from 39.3 ± 2.6 % WT to 69.4 ± 4 % WT.

Going from B9 to B10, the “Baseline α-Gal A activity (% WT)” value falls from 60.8 ± 3.1 % WT to 42.6 ± 3.5 % WT.

First: B11
Second: B12
The “Baseline α-Gal A activity (% WT)” value of the first is lower: 7.8 ± 0.5 % WT for the first, 56.4 ± 5.2 % WT for the second.

Compared with B13, B14 is higher in “Baseline α-Gal A activity (% WT)” value: 23.9 ± 3 % WT for the first, 65.9 ± 5.1 % WT for the second.

First: B15
Second: B16
The “Baseline α-Gal A activity (% WT)” value of the first is lower: 14.8 ± 1 % WT for the first, 41.8 ± 3.1 % WT for the second.

Compared with B17, B18 is higher in “Baseline α-Gal A activity (% WT)” value: 38 ± 2.1 % WT for the first, 69 ± 5.5 % WT for the second.

Going from B19 to B20, the “Baseline α-Gal A activity (% WT)” value rises from 23.9 ± 1.6 % WT to 69.4 ± 3.4 % WT.

For B21, the “Baseline α-Gal A activity (% WT)” value was 93.4 ± 6.3 % WT.

same assay, conditions: lysates of HEK-293 cells transfected with the mutant form, incubated 5 days in the absence of migalastat; mean ± SEM

B1 and B2 are within error of each other in “Baseline α-Gal A activity” value: 11157 ± 776 nmol/mg/h for the first, 9696 ± 798 nmol/mg/h for the second.

First: B3
Second: B4
The “Baseline α-Gal A activity” value of the first is lower: 5720 ± 464 nmol/mg/h for the first, 7311 ± 556 nmol/mg/h for the second.

Going from B5 to B6, the “Baseline α-Gal A activity” value rises from 3034 ± 340 nmol/mg/h to 25264 ± 1668 nmol/mg/h.

First: B7
Second: B8
The “Baseline α-Gal A activity” value of the first is lower: 14123 ± 1096 nmol/mg/h for the first, 24969 ± 1730 nmol/mg/h for the second.

Going from B9 to B10, the “Baseline α-Gal A activity” value falls from 21896 ± 1232 nmol/mg/h to 17330 ± 2084 nmol/mg/h.

First: B11
Second: B12
The “Baseline α-Gal A activity” value of the first is lower: 3368 ± 179 nmol/mg/h for the first, 22123 ± 2319 nmol/mg/h for the second.

First: B13
Second: B14
The “Baseline α-Gal A activity” value of the first is lower: 10144 ± 1069 nmol/mg/h for the first, 23382 ± 1548 nmol/mg/h for the second.

Compared with B15, B16 is higher in “Baseline α-Gal A activity” value: 5271 ± 397 nmol/mg/h for the first, 18091 ± 1103 nmol/mg/h for the second.

Going from B17 to B18, the “Baseline α-Gal A activity” value rises from 16513 ± 681 nmol/mg/h to 24223 ± 1555 nmol/mg/h.

Going from B19 to B20, the “Baseline α-Gal A activity” value rises from 10465 ± 624 nmol/mg/h to 27252 ± 1778 nmol/mg/h.

In the case of B21, the “Baseline α-Gal A activity” value is reported as 32963 ± 1757 nmol/mg/h.

same assay, conditions: lysates of HEK-293 cells transfected with the mutant form, incubated 5 days with 10 μM migalastat; mean ± SEM

Compared with B1, B2 is lower in “10 μM migalastat α-Gal A activity” value: 19875 ± 1502 nmol/mg/h for the first, 12128 ± 1157 nmol/mg/h for the second.

First: B3
Second: B4
The “10 μM migalastat α-Gal A activity” value of the first is higher: 22242 ± 1000 nmol/mg/h for the first, 10493 ± 561 nmol/mg/h for the second.

Going from B5 to B6, the “10 μM migalastat α-Gal A activity” value rises from 9885 ± 794 nmol/mg/h to 34635 ± 3117 nmol/mg/h.

First: B7
Second: B8
The “10 μM migalastat α-Gal A activity” value of the first is lower: 24797 ± 1771 nmol/mg/h for the first, 31289 ± 2550 nmol/mg/h for the second.

B9 and B10 are within error of each other in “10 μM migalastat α-Gal A activity” value: 29920 ± 1808 nmol/mg/h for the first, 26790 ± 1958 nmol/mg/h for the second.

First: B11
Second: B12
The “10 μM migalastat α-Gal A activity” value of the first is lower: 7489 ± 936 nmol/mg/h for the first, 29662 ± 2559 nmol/mg/h for the second.

Going from B13 to B14, the “10 μM migalastat α-Gal A activity” value rises from 14707 ± 1289 nmol/mg/h to 33479 ± 2746 nmol/mg/h.

Going from B15 to B16, the “10 μM migalastat α-Gal A activity” value rises from 19670 ± 1202 nmol/mg/h to 23672 ± 1428 nmol/mg/h.

Compared with B17, B18 is higher in “10 μM migalastat α-Gal A activity” value: 22993 ± 1042 nmol/mg/h for the first, 31835 ± 2399 nmol/mg/h for the second.

First: B19
Second: B20
The “10 μM migalastat α-Gal A activity” value of the first is lower: 14682 ± 993 nmol/mg/h for the first, 35885 ± 2754 nmol/mg/h for the second.

B21 was tested, and the “10 μM migalastat α-Gal A activity” value was 41024 ± 3001 nmol/mg/h.
